Measured values taken from the DeepSol protein solubility set.

Experiment: soluble on expression in E. coli; label from the status in PepcDB or PDB records

Row | Sequence | soluble on expression in E. coli
1 | MSLHASAIESIETIIVDLPTIRPHKLAMHTMQNQTLVLIRLRCADGIEGLGESTTIGGLAYGNESPDSIKTNIDRFVAPLLIGQDASNINAAMLRLEQSIRGNTFAKSGIESALLDAQGKRLGLPVSELLGGRVRDALPVAWTLASGDTAKDIAEAQKMLDLRRHRIFKLKIGAGEVDRDLAHVIAIKKALGDSASVRVDVNQAWDEAVALRACRILGGNGIDLIEQPISRNNRAGMVRLNASSPAPIMADESIECVEDAFNLAREGAASVFALKIAKNGGPRATLRTAAIAEAAGIGLYGGTMLEGGIGTLASAHAFLTLNKLSWDTELFGPLLLTEDILAEPPVYRDFHLHVSKAPGLGLSLDEERLAFFRRDKTTPVLHHTEGHHHHHH | soluble
2 | MGHHHHHHSHMGKGTFVYRTTITSPHEEVWAFFSSPTNLQTLTKIPKVVLDSTSETTQGSEIEMKLFVLGIPFQWKAYIEAYNPPFSFTDVAIKMPFPIVYWRHTHRFTTEGERTVMIDEIQYEIKMANKLVIFFLRRMFRARESALHRYFQS | soluble
3 | MAGDKGGGDGERRLRQPIVVVLGHVDHGKTTLLDKIRRTAVAAKEAGGITQHIGASIVPADVIEKIAEPLKKVIPVKLVIPGLLFIDTPGHELFSNLRRRGGSVADFAILVVDIMEGFKPQTYEALELLKERRVPFLIAANKIDRIPGWKPNPDAPFIETIRRQDPKVREILEQRVYEIVGKMYEAGLPAELFTRIKDFRRKIAIVPVSARTGEGIPELLAVLAGLTQTYLKERLRYAEGPAKGVVLEVKEMQGFGTVVDAVIYDGVLKKEDIIVVGGREGPIVTRVRALLMPAPLQDIRSREARFVQVDRVYAAAGVRIAAPGLDDVIAGSPIYAAESEEEARKLMEAVQREIEELRFRTENIGVVVKADTLGTLEALVEALRRRGVPVRLADIGPVSRSDVLDAAVTRKIDPYLGVVLAFNVKVLPEAEEEASRAGVKIFRESMIYKLIEDYEEWVKKEKEAERLKALNSLIRPGKFRILPGYVFRRSDPAIVGVEVLGGVIRPGYPVMDSQGRELGRIMAIKDRDRSLEEARLGAAVAVSIQGRILIGRHANEGDILYTNVPAQHAYKILTEFKDLVSKDELDVLREIAEIKRRAADHEYNKVLLRLKIKRVSQ | soluble
4 | SLKKWLVTIAALWLAGCSSGEINKNYYQLPVVQSGTQSTASQGNRLLWVEQVAVPDYLAGNGVVYQTSDVKYVIANNTLWASPLDQQLRNTLVANLSTQLPGWVVASQPLGSAQDTLNVTVTEFNGRYDGKVIVSGEWLLNHQGQLIKRPFRLEGMQTQDGYDEMVKVLASVWSQEAASIAQEIKRLP | soluble
5 | MGSDKIHHHHHHMSIFFKPPIDIEILFDNEESRKHVDIATRSSNSSYKSMKESLPVYEDGESLGGIVTLRVRDSKKVDHLGIKVSVIGSIDMLKSHGSGNSSSKKVTSSTSSSSSNGSVDVRKNSVDQFLCQSYDLCPAGELQHSQSFPFLFRDLSKRYESYKGKNVDVAYYVKVTVMRKSTDISKIKRFWVYLYNSVTTAPNTLSANETKATTNDIAGGNYAADNASDNTQTKSTQGEAADVNQVLPISHSNNEPKPVRLDIGIENCLHIEFEYAKSQYSLKEVIVGRIYFLLTRLRIKHMELSLITRESSGLQTSNVMTDSTAIRYEIMDGSSVKGETIPIRLFLSGYDLTPNMSCNYFNVKNYLSLVIIDEDGRRYFKQSEITLYRTR | not soluble
6 | MNESRITRNNEAVYKPEELDILRLGLDTDLYPNVDWMDMLLKDGAWSNRINLNMSGGGTTARYFVSASYVKEDGMYNTDESLKDDYNTNAAYHRWNYRLNTDIDITKTTLLKVGVAGFLSKRNSPGLGDGDVWGELFGYNPIKTPVMYSNGYIPAIGSGNKTNPWVAATQTGFNENWTNNIETNISLEQNFDFITKGLKFVGRFGYDSNNQNTIRRLKWPEQWLAERARDPETGELRWKKISGSQNMKQESSSSGNRREFLDMMLNWDRSFGAHHPSATIKYTQDSYIQTQNLGEDLKTGINKRNQDLAGRVAYNWNYRYFIDFNFGYNGSENFAKGDRFGFFPAFSLAWNIAEEPFIKKHLKWMNMFKVRFSYGKVGNDNVGTRFPYLYTIADRYKNGDNEIIYGGYDWAQYPSSYSFGGLGFADVASNGITWEVAEKNDLGIDLALFNDKFTATIDYFDEKRTGIYMVRNYLPQIVGLNGHNPAANVGAVSSKGFDGHFSYKQRINDVNLTVRGNITYSKNEVLERDEENNVYAYQMQRGYRVDQCKGLIAEGLFKDYDDIRNSPTQSWGKVQPGDIKYRDVNGDGVINDGDQVAIGATSRPNLIYGLGASASWKGLDVNVHFQGAGKSTFFTYGKCVWAFTEGEWGNIFKGMLDNRWVDADTAETLGIPANENPNASYPRLSYQGDNASNNNYRNSTFWLKNGRYLRLKTIDVGYTLPKSIVNKMHFNNIRIFLVGTNLLTWSSFKTWDPEMGDPRGESYPLTKSITMGISVNL | not soluble
7 | MSLKKIIITGALGQIGTELVIKCRERYGTENVLATDIRKPEPHSPVKNGPFEILDVTDRNRLFETVRYFNADTLMHMAALLSATAEKKPLVAWDLNMGGLINTLEAARRYQLKYFTPSSIGAFGISTPKVNTPQLTIQQPTTMYGINKVTGELLCQYYYVKFGVDTRSVRFPGLISHVKEPGGGITDYAVDMYFKAVRKGHYTSYINRYTYMDMMYMEDAIDAIIKLMEEDSVKLKTRNGYNLSAMSIEPEMLKQAIQVYYPDFTLDYDIDLERQDIALSWPDSIDTSCAQEEWGFDPKYDLPTMTKVMLEAIEKKQKEEGHHHHHH | soluble
8 | MYDWFKQMRKESPVYYDGKVWNLFKYEDCKMVLNDHKRFSSNLTGYNDKLEMLRSGKVFFDIPTRYTMLTSDPPLHDELRNLTADAFNPSNLPVDFVREVTVKLLSELDEEFDVIESFAIPLPILVISKMLGINPDVKKVKDWSDLVALRLGRADEIFSIGRKYLELISFSKKELDSRKGKEIVDLTGKIANSNLSELEKEGYFILLMIAGNETTTNLIGNAIEDFTLYNSWDYVREKGALKAVEEALRFSPPVMRTIRVTKEKVKIRDQVIDEGELVRVWIASANRDEEVFKDPDSFIPDRTPNPHLSFGSGIHLCLGAPLARLEARIALEEFAKKFRVKEIVKKEKIDNEVLNGYRKLVVRVERT | soluble
9 | MDVTRQIELAHRYMKDFHKSDYSGHDVAHVERVTSLAQTISKCEQQGEYLIITLSALLHDVIDDKLTNKANALDRLKTFLKNIRVSSDQQQKIIYIIQHLSYRNGQNNHVDLPIEGQIVRDADRLDAIGAIGIARAFQFSGHFNEPMWTESPHSDIPNIETITNLEPSAIRHFYDKLLKLKDLMHTETGRKLARERHAFMEQFLNQFYKEWHILEHHHHHH | soluble
10 | MAEFKEQVLDILEEVCENDIVKENLDVQLFEEGILDSFAVVSLLVEFQERLDIEVSISDFDRDEWATPNMVIKKLEEIR | not soluble
11 | MKKGLKMRALERSDLRFIHELNNNRNIMAYWFEEPYESYDELEELYRKHIHDDAERRFVVEDADGILIGLVELIEINYIHRSAEFQII | not soluble
12 | MQEYTNHSDTTFALRNISFRVPGRTLLHPLSLTFPAGKVTGLIGHNGSGKSTLLKMLGRHQPPSEGEILLDAQPLESWSSKAFARKVAYLPQQLPPAEGMTVRELVAIGRYPWHGALGRFGAADREKVEEAISLVGLKPLAHRLVDSLSGGERQRAWIAMLVAQDSRCLLLDEPTSALDIAHQVDVLSLVHRLSQERGLTVIAVLHDINMAARYCDYLVALRGGEMIAQGTPAEIMRGETLEMIYGIPMGILPHPAGAAPVSFVY | soluble
13 | MTDFQKQFFARLHIEEKDTVSFEDLSNIMYAMAQTVPFENLNILEKNFKEISKENLKEKILVNNRGGLCYELNPTMYYFLKDSGFDVHLVSGTVYNAANSIWAVDSGHIATVLTHHNELYLIEVGFGSYLPLAPVPFLGEVIHSATGDYRIRKEMTEKGNYILEMRKNNEFLDQSAADDWTLGYAFYIEEVDEEKANTAQKIIVEHEGSPFNKVPLIVKLTEDGHASLTKDSLTVAKNGKKTKETVTDMQYTNLLHSKFGITL | not soluble
14 | RENFPGVSWDSLPDELLLGIFSCLCLPELLKVSGVCKRWYRLASDESLWQTLDLTGKNLHPDVTGRLLSQGVIAFRCPRSFMDQPLAEHFSPFRVQHMDLSNSVIEVSTLHGILSQCSKLQNLSLEGLRLSDPIVNTLAKNSNLVRLNLSGCSGFSEFALQTLLSSCSRLDELNLSWCFDFTEKHVQVAVAHVSETITQLNLSGYRKNLQKSDLSTLVRRCPNLVHLDLSDSVMLKNDCFQEFFQLNYLQHLSLSRCYDIIPETLLELGEIPTLKTLQVFGIVPDGTLQLLKEALPHLQINCSHFTTIARPTIGNKKNQEIWGIKCRLTLQKPSCL | soluble
15 | FASVLQGVFEYPYGCAEQTASKGYAALWLDDATIRSLGIQGVTPAQRLERLEGALGRLASLQTTNGHFSMWGGNSDVNPVLTPYIAGFLLDAKDAGFAVSDAVLQKALNRLSEDLLSGAHLFYGNDQSEALMFAHQAWSGYVLARVNRAPLGTLRTLYDNERGKAVSGLSLVHLGVALSLQGDRKRGEAAIEAGFAKSEGGRPEVFGDYGSVIRDNALMIALVRAHGLAKPAYEARVMALGRDLQARRRSGWLWLSTQEQVALAQ | not soluble
16 | MGSDKIHHHHHHGLDRWMSWKTAPYIYDELQDLPYRQVGVVLGTAKYYRTGVINQYYRYRIQGALNAYNSGKVNYLLLSGDNALQSYNEPMTMRRDLIKGGVDPADIVLDYAGFRTLDSIVRTRKVFDTNDFIIITQRFHCERALFIALHMGIQAQCYAVPSPKDMWSVRLREFGARFGALADLYIFKREPRFLGPLIPIPAQQHDVPDDAQSYPAVTPEQLLELQKEK | not soluble
17 | MTFRNCVAVDLGASSGRVMLARYERECRSLTLREIHRFNNGLHSQNGYVTWDVDSLESAIRLGLNKVCEEGIRIDSIGIDTWGVDFVLLDQQGQRVGLPVAYRDSRTNGLMPQAQQQLGKRDIYQRSGIQFLPFNTLYQLRALTEQQPELIPHIAHALLMPDYFSYRLTGKMNWEYTNATTTQLVNINSDDWDESLLAWSGANKAWFGRPTHPGNVIGHWICPQGNEIPVVAVASHDTASAVIASPLNGSRAAYLSSGTWSLMGFESQTPFTNDTALAANITNEGGAEGRYRVLKNIMGLWLLQRVLQERQINDLPALIAATQALPACRFIINPNDDRFINPDEMCSEIQAACRETAQPIPGSDAELARCIFDSLALLYADVLHELAQLRGEDFSQLHIVGGGCQNTLLNQLCADACGIRVIAGPVEASTLGNIGIELMTLDELNNVDDFRQVVSTTANLTTFTPNPDSEIAHYVAQIHSTRQTKELCA | not soluble
18 | INYKQLQLQERTNIRKCQELLEQLNGKINLTYRADFKIPMEMTEKMQKSYTAFAIQEMLQNVFLVFRNNFSSTGWNETIVVRLLDELHQQTVFLKTVLEEKQEERLTWEMSSTALHLKSYYWRVQRYLKLMKYNSYAWMVVRAEIFRNFLIIRRLTRNFQN | soluble
19 | MRETKEWRGTTSTSRVFVQKGYQLSDELALRKVQVLERRYGGMQLAHRAATVIQRAWREYCIMKQWMVIRHKHDTIPDHLDARCGVSNSQRNELSLTSRYATSLSAQLRIDRAARSTTLDRSPPSPAPPVLVNLQNSNMIDSLMSPRLGNRRFGAAASRCAPAAAELTSTEVWLPRPSLVNHNPAHSNSLPRLQLLTAWGFVKNSPDSLASLLFGRRGLSKSMIGEYIGTLHSPYHSLVLKYFTALIDIRGLEVDVALRKAMQFFILPKEAEKIDRIIQAFALHYSKSNPKRTSHYRGGWDTIHLLSFAIIMLNTDLHSPNVKQRMTQADFVKNLRGQDKISGEKNGEDIDRKTLEGIYDRIKKDELKAGDDHVAQVQRVDRAIVGKDKPRLTETPRRLVCYCRLQQVSDPTKRQSSSARERDVFLFNDMIVVAKGVRRGSTSMAGCTYTLKQWTLLLGAHVTEFQRGQYEFGLTITCPNKDKIHFNARNFEDRCHFVADVTESIREATEMEQVRLEMEMEQHTTTTIRPDNQRDSGLPDMDESMKLSNGSNSSAGSSNSSTNGVNNSSFRRLSFNSLDSGVVEEHLDAC | not soluble
